The text below walks through data of US20260167721A1 (ABLEXIS, published 2026).

To fix the notation:
B1: CD3 × CD33-BspAb77 (bispecific antibody)
chain 1: EVQLVESGGGLVKPGGSLRLSCAASGFTFSTYIMNWVRQAPGKCLEWVSSISSSRSYIYYADSVKGRFTISRDNAKNSLYLQMNSLRAEDTAVYYCAREDRYRLFFDYWGQGTLVTVSSGGGGSGGGGSGGGGSGGGGSNFMLTQPHSVSESPGKTVTISCTRSSGSIASNYVQWYQQRPGSSPTTVIYEDNQRPSGVPDRFSGSIDSSSNSASLTISGLKTEDEADYYCQSYDSSNRVFGCGTKLTVLDKTHTCPPCPAPEFEGGPSVFLFPPKPKDTLMISRTPEVTCVVVDVSHEDPEVKFNWYVDGVEVHNAKTKPREEQYNSTYRVVSVLTVLHQDWLNGKEYKCKVSNKALPASIEKTISKAKGQPREPQVYTLPPCREEMTKNQVSLWCLVKGFYPSDIAVEWESNGQPENNYKTTPPVLDSDGSFFLYSKLTVDKSRWQQGNVFSCSVMHEALHNHYTQKSLSLSPGK
chain 2: EVQLVQSGAEVKKPGSSVKVSCKASGYTITDSNIHWVRQAPGQSLEWIGYIYPYNGGTDYNQKFKNRATLTVDNPTNTAYMELSSLRSEDTAFYYCVNGNPWLAYWGQGTLVTVSSASTKGPSVFPLAPSSKSTSGGTAALGCLVKDYFPEPVTVSWNSGALTSGVHTFPAVLQSSGLYSLSSVVTVPSSSLGTQTYICNVNHKPSNTKVDKRVEPKSCDKTHTCPPCPAPEFEGGPSVFLFPPKPKDTLMISRTPEVTCVVVDVSHEDPEVKFNWYVDGVEVHNAKTKPREEQYNSTYRVVSVLTVLHQDWLNGKEYKCKVSNKALPASIEKTISKAKGQPREPQVCTLPPSREEMTKNQVSLSCAVKGFYPSDIAVEWESNGQPENNYKTTPPVLDSDGSFFLVSKLTVDKSRWQQGNVFSCSVMHEALHNRFTQKSLSLSPGK
chain 3: DIQLTQSPSTLSASVGDRVTITCRASESLDNYGIRFLTWFQQKPGKAPKLLMYAASNQGSGVPSRFSGSGSGTEFTLTISSLQPDDFATYYCQQTKEVPWSFGQGTKVEVKRTVAAPSVFIFPPSDEQLKSGTASVVCLLNNFYPREAKVQWKVDNALQSGNSQESVTEQDSKDSTYSLSSTLTLSKADYEKHKVYACEVTHQGLSSPVTKSFNRGEC
B2: CD3 × CD33-BspAb78 (bispecific antibody)
chain 1: EVQLVESGGGLVKFGGSLRLSCAASGFTFSRYSMNWVRQAPGKCLEWVSSISSSSSYKYYADSVKGRFTISRDNAKNSLYLQMNSLRAEDTAVYYCAREGGNSHGMDVWGQGTTVTVSSGGGGSGGGGSGGGGSGGGGSNFMLTQPHSVSESPGKTVTISCTRSSGSIASNYVQWYQQRPGSSPTTVIYEDNQRPSGVPDRFSGSIDSSSNSASLTISGLKTEDEADYYCQSYDSSNRVFGCGTKLTVLDKTHTCPPCPAPEFEGGPSVFLFPPKPKDTLMISRTPEVTCVVVDVSHEDPEVKFNWYVDGVEVHNAKTKPREEQYNSTYRVVSVLTVLHQDWLNGKEYKCKVSNKALPASIEKTISKAKGQPREPQVYTLPPCREEMTKNQVSLWCLVKGFYPSDIAVEWESNGQPENNYKTTPPVLDSDGSFFLYSKLTVDKSRWQQGNVFSCSVMHEALHNHYTQKSLSLSPGK
chain 2: B1 chain 2
chain 3: B1 chain 3
B3: CD3 × CD33-BspAb80 (bispecific antibody)
chain 1: QVQLQESGPGLVKPSETLSLTCTVSGGSISSYYWSWIRQPAGKCLEWIGRIYTSGSTKYNPSLKSRVTMSVDTSKNQFSLKLISVTAADTAVYFCARERIRDLYFDYWGQGTLVTVSSGGGGSGGGGSGGGGSGGGGSNFMLTQPHSVSESPGKTVTISCTRTSGSIASNYVQWYQQRPGSSPTTVIYEDNQRPSGVPDRFSGSIDSSSNSASLTISGLKTEDEAAYYCQSYDRSNRVFGCGTKLTVLDKTHTCPPCPAPEFEGGPSVFLFPPKPKDTLMISRTPEVTCVVVDVSHEDPEVKFNWYVDGVEVHNAKTKPREEQYNSTYRVVSVLTVLHQDWLNGKEYKCKVSNKALPASIEKTISKAKGQPREPQVYTLPPCREEMTKNQVSLWCLVKGFYPSDIAVEWESNGQPENNYKTTPPVLDSDGSFFLYSKLTVDKSRWQQGNVFSCSVMHEALHNHYTQKSLSLSPGK
chain 2: B1 chain 2
chain 3: B1 chain 3
B4: CD3 × CD33-BspAb81 (bispecific antibody)
chain 1: QVQLQESGPGLVKPSQTLSLTCTVSGGSISSGGYYWSWIRQHPGKCLEWIGYIYYSGSTYYNPSLKSRVTISVDTSKDQFSLKLSSVTAADTAVYYCARERKTSLPFDIWGQGTMVTVSSGGGGSGGGGSGGGGSGGGGSNFMLTQPHSVSESPGKTVTISCTRSSGSIASNYVQWYQQRPGSSPTTVIYEDNQRPSGVPDRFSGSIDSSSNSASLTISGLKTEDEAYYYCQSFDSSNRVFGCGTKLTVLDKTHTCPPCPAPEFEGGPSVFLFPPKPKDTLMISRTPEVTCVVVDVSHEDPEVKFNWYVDGVEVHNAKTKPREEQYNSTYRVVSVLTVLHQDWLNGKEYKCKVSNKALPASIEKTISKAKGQPREPQVYTLPPCREEMTKNQVSLWCLVKGFYPSDIAVEWESNGQPENNYKTTPPVLDSDGSFFLYSKLTVDKSRWQQGNVFSCSVMHEALHNHYTQKSLSLSPGK
chain 2: B1 chain 2
chain 3: B1 chain 3
B5: CD3 × CD33-BspAb82 (bispecific antibody)
chain 1: EVQLVESGGGLVKPGGSLRLSCAASGLTFSTYSMNWVRQAPGKCLEWVSSISSSGSYVYYADSVKGRFTMSRDNAKNSLYLQMNSLRAEDTAVYYCARERRELLFDYWGQGTLVTVSSGGGGSGGGGSGGGGSGGGGSNFMLTQPHSVSESPGKTVTISCTRSSGSIASNYVQWYQQRPGSSPTSVIYEDNQRPSGVPDRFSGSIDSSSNSASLTISGLKTEDEADYYCQSYDRSNRVFGCGTKLTVLDKTHTCPPCPAPEFEGGPSVFLFPPKPKDTLMISRTPEVTCVVVDVSHEDPEVKFNWYVDGVEVHNAKTKPREEQYNSTYRVVSVLTVLHQDWLNGKEYKCKVSNKALPASIEKTISKAKGQPREPQVYTLPPCREEMTKNQVSLWCLVKGFYPSDIAVEWESNGQPENNYKTTPPVLDSDGSFFLYSKLTVDKSRWQQGNVFSCSVMHEALHNHYTQKSLSLSPGK
chain 2: B1 chain 2
chain 3: B1 chain 3
B6: CD3 × CD33-BspAb79 (bispecific antibody)
chain 1: QVQLQESGPGLVKPSETLSLTCTVSGGSISSYYWSWIRQPAGKCLEWIGRIYASGSTYYNPSLKSRVTMSVDTSKNQFSLKLSSVTAADTAVYYCAREKRSRLYFDYWGQGTLVTVSSGGGGSGGGGSGGGGSGGGGSNFMLTQPHSVSESPGKTVTISCTRSSGSIASNYVQWYQQRPGSSPTTVIYEDNQRPSGVPDRFSGSIDSSSNSASLTISGLKTEDEGDYYCQSYDRSNRVFGCGTKLTVLDKTHTCPPCPAPEFEGGPSVFLFPPKPKDTLMISRTPEVTCVVVDVSHEDPEVKFNWYVDGVEVHNAKTKPREEQYNSTYRVVSVLTVLHQDWLNGKEYKCKVSNKALPASIEKTISKAKGQPREPQVYTLPPCREEMTKNQVSLWCLVKGFYPSDIAVEWESNGQPENNYKTTPPVLDSDGSFFLYSKLTVDKSRWQQGNVFSCSVMHEALHNHYTQKSLSLSPGK
chain 2: B1 chain 2
chain 3: B1 chain 3

The target in the first test is T1, human CD3 (TCR/CD3 complex on the cell surface) (human, UniProt P07766 23-207; P04234 22-171; P09693 23-182).
T1 construct: whole, on cells; Native CD3 on human Pan-T cells or Jurkat wild-type cells; also called CD3 on Pan-T cells; CD3 on Jurkat WT cells
T1 sequence (P07766 23-207, chain 1 of 3): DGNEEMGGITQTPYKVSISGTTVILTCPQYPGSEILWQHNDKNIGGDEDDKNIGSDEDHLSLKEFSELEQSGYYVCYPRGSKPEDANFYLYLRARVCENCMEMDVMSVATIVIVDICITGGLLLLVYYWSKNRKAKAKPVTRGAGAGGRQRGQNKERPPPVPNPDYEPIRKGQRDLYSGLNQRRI
T1 sequence (P04234 22-171, chain 2 of 3): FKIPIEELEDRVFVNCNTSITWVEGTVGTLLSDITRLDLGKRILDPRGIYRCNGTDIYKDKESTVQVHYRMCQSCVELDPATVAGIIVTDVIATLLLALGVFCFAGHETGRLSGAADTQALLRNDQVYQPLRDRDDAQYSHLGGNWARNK
T1 sequence (P09693 23-182, chain 3 of 3): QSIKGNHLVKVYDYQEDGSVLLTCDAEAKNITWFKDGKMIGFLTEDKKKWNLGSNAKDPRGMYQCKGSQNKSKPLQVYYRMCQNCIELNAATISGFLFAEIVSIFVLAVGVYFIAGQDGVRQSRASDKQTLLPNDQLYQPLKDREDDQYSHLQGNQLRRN
Nature of the test: flow cytometry, Pan-T cells, 1 ug/mL.
Take B1: the “% Positive” value came out at 92.5% and the gMFI stood at 37800 gMFI.

With B2, the “% Positive” value was determined as 98% and the gMFI worked out at 66500 gMFI.

For the molecule B3, the “% Positive” value amounted to 99.7% and the gMFI stood at 330000 gMFI.

Regarding B4, the “% Positive” value was determined as 99.7% and the gMFI worked out at 79900 gMFI.

On to B5, for which the “% Positive” value stood at 99.5% and the gMFI turned out to be 319000 gMFI.

As to B6, the “% Positive” value is 99.3% and the gMFI turned out to be 34700 gMFI.

Another test addresses T1, human CD3 (TCR/CD3 complex on the cell …). The test is described as follows: flow cytometry, Pan-T cells, 10 ug/mL.
In the case of B1, the “% Positive” value was determined as 99.8% and the gMFI was 188000 gMFI.

In the case of B2, the “% Positive” value is 99.8% and the gMFI was 225000 gMFI.

On to B3, for which the “% Positive” value worked out at 99.8% and the gMFI amounted to 486000 gMFI.

With B4, the “% Positive” value came to 99.8% and the gMFI was 369000 gMFI.

As for B5, the “% Positive” value was found to be 99.9% and the gMFI amounted to 462000 gMFI.

Turning to B6, the “% Positive” value was 99.4% and the gMFI was 166000 gMFI.

The next test has the same target. Nature of the test: flow cytometry, Jurkat WT cells, 1 ug/mL.
Take B1: the gMFI was found to be 8960 gMFI.

For the molecule B2, the gMFI came to 20300 gMFI.

For B3, the gMFI turned out to be 50500 gMFI.

In turn, B4 gave a gMFI of 24100 gMFI.

As for B5, the gMFI was 54500 gMFI.

Regarding B6, the gMFI was determined as 8830 gMFI.

For a further test the target is unchanged. The test is described as follows: flow cytometry, Jurkat WT cells, 10 ug/mL.
In turn, B1 yielded a gMFI of 22100 gMFI.

Turning to B2, the gMFI worked out at 28800 gMFI.

As for B3, the gMFI turned out to be 59400 gMFI.

B4 showed a gMFI of 55100 gMFI.

Regarding B5, the gMFI came to 58600 gMFI.

In turn, B6 showed a gMFI of 20400 gMFI.

For a further test the target is unchanged. The test is described as follows: flow cytometry, Jurkat WT gMFI over Jurkat KO gMFI, 1 ug/mL.
For the molecule B1, the “Jurkat WT/KO (Fold)” value was 3.6 fold.

With B2, the “Jurkat WT/KO (Fold)” value stood at 6.6 fold.

B3: the “Jurkat WT/KO (Fold)” value came to 13.1 fold.

Turning to B4, the “Jurkat WT/KO (Fold)” value came out at 7.1 fold.

Consider B5, for which the “Jurkat WT/KO (Fold)” value amounted to 12.9 fold.

On to B6, for which the “Jurkat WT/KO (Fold)” value amounted to 4 fold.

For a further test the target is unchanged. Nature of the test: flow cytometry, Jurkat WT gMFI over Jurkat KO gMFI, 10 ug/mL.
As to B1, the “Jurkat WT/KO (Fold)” value was determined as 8.6 fold.

With B2, the “Jurkat WT/KO (Fold)” value was 9.9 fold.

As to B3, the “Jurkat WT/KO (Fold)” value is 15 fold.

B4: the “Jurkat WT/KO (Fold)” value was 13.5 fold.

As for B5, the “Jurkat WT/KO (Fold)” value was determined as 14.4 fold.

Take B6: the “Jurkat WT/KO (Fold)” value was 8.9 fold.
